According to US20220048962:

Tested on: MBP-CIRTS-1 (ORF5-TBP6.7-SMG6 Pin nuclease fusion) (synthetic fusion (Grapevine virus A ORF5; Homo sapiens U1A-derived TBP6.7; Homo sapiens SMG6))
Assay: FP filter
Conditions: apparent; text states ~50-fold weaker than on-target

**Q.** “non-targeting TAR-hairpin gRNA ; model RNA substrate (R1)” was tested. Which Kd did it give?
**A.** The Kd was 500 nM.
